T1: HTRA3, P83110
T1 sequence (P83110 354-453, limits assumed, looked up): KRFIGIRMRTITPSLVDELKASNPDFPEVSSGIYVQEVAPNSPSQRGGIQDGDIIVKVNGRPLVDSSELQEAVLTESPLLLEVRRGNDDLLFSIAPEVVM

T2: MPDZ_12, O75970
T2 sequence (O75970 1857-1958, limits assumed, looked up): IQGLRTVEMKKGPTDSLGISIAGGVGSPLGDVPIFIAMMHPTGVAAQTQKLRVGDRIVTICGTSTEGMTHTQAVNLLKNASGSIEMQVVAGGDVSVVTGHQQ

T3: APBA3_1, O96018
T3 sequence (O96018 389-490, limits assumed, looked up): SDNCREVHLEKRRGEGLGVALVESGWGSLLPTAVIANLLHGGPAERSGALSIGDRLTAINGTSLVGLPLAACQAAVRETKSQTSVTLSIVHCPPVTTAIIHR

T4: RADIL, Q96JH8
T4 sequence (Q96JH8 971-1071, limits assumed, looked up): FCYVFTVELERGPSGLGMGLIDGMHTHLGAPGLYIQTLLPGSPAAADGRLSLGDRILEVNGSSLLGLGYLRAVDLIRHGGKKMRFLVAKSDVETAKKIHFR

T5: GRIP1_4, Q9Y3R0
T5 sequence (Q9Y3R0 467-571, limits assumed, looked up): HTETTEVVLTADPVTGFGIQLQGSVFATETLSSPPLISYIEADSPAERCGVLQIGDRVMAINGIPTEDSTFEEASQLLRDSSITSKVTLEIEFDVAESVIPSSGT

T6: DFNB31_3, Q9P202
T6 sequence (Q9P202 811-907, limits assumed, looked up): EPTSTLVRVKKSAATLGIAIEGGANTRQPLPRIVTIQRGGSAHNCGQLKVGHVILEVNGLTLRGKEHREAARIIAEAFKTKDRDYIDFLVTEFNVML

T7: PDZRN3_1, Q9UPQ7
T7 sequence (Q9UPQ7 244-349, limits assumed, looked up): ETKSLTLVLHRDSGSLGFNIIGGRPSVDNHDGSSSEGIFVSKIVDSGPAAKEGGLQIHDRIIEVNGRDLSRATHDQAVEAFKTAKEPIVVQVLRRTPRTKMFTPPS

T8: DLG3_2, Q92796
T8 sequence (Q92796 221-321, limits assumed, looked up): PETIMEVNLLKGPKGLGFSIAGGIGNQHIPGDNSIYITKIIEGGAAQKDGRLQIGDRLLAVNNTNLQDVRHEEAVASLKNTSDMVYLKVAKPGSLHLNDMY

T9: TIAM2, Q8IVF5
T9 sequence (Q8IVF5 885-986, limits assumed, looked up): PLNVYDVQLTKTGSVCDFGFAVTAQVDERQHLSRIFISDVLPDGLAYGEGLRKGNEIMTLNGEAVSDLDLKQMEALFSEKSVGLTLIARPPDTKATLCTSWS

T10: MPP2, Q14168
T10 sequence (Q14168 180-250, limits assumed, looked up): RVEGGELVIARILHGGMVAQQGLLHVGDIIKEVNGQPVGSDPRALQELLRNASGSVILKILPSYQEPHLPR

T11: DFNB31_1, Q9P202
T11 sequence (Q9P202 135-233, limits assumed, looked up): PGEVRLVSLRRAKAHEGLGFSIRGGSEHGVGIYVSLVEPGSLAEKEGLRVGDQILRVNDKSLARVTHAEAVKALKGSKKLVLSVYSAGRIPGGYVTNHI


Legend:
Assay in all cases: holdup assay
Design in all cases: key: below the threshold = too weak to quantify, mostly under pKd 3.1 to 4
Settings in all cases: plain residues with an end cap or a label only (N-terminal biotin on a linker: ttds)
[1] = target: LNX1_2, Q8TBB1
Sequence of LNX1_2, Q8TBB1 (Q8TBB1 371-470): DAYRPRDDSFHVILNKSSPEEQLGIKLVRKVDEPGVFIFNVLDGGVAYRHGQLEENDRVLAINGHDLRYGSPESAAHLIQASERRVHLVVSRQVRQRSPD

[2] = target: T1, HTRA3, P83110
[3] = target: TJP1_3, Q07157
Sequence of TJP1_3, Q07157 (Q07157 416-512): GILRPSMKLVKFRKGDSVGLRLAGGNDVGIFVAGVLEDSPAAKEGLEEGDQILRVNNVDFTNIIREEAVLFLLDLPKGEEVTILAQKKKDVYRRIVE

[4] = target: GRASP, Q7Z6J2
Sequence of GRASP, Q7Z6J2 (Q7Z6J2 96-193): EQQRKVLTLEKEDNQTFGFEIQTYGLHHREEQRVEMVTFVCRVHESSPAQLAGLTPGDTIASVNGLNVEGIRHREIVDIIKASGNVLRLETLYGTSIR

[5] = target: T2, MPDZ_12, O75970
[6] = target: PICK1, Q9NRD5
Sequence of PICK1, Q9NRD5 (Q9NRD5 17-115): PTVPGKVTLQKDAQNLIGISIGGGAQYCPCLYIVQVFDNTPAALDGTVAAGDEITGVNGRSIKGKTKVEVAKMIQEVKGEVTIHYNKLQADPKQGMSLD

[7] = target: IL16_3, Q14005
Sequence of IL16_3, Q14005 (Q14005 1107-1207): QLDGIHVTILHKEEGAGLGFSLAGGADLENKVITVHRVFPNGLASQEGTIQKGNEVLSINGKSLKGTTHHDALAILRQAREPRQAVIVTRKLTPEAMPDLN

[8] = target: NOS1, P29475
Sequence of NOS1, P29475 (P29475 9-101): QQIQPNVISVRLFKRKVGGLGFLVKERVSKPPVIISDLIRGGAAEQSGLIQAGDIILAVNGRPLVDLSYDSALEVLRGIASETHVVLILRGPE

[9] = target: T3, APBA3_1, O96018
[10] = target: T4, RADIL, Q96JH8
[11] = target: T5, GRIP1_4, Q9Y3R0
[12] = target: FRMPD3, Q5JV73
Sequence of FRMPD3, Q5JV73 (Q5JV73 12-100): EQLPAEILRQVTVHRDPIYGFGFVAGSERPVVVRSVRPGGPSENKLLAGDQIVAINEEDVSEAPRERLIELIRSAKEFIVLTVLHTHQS

[13] = target: T6, DFNB31_3, Q9P202
[14] = target: GRIP2_4, Q9C0E4
Sequence of GRIP2_4, Q9C0E4 (Q9C0E4 446-548): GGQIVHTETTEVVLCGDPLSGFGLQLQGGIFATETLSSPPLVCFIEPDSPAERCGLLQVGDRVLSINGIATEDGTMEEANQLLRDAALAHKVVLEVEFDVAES

[15] = target: MAGI2_2, Q86UL8
Sequence of MAGI2_2, Q86UL8 (Q86UL8 410-522): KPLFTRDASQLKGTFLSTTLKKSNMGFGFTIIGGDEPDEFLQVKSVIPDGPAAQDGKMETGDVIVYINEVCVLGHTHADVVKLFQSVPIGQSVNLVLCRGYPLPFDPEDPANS

[16] = target: T7, PDZRN3_1, Q9UPQ7
[17] = target: T8, DLG3_2, Q92796
[18] = target: GRIP2_6, Q9C0E4
Sequence of GRIP2_6, Q9C0E4 (Q9C0E4 648-740): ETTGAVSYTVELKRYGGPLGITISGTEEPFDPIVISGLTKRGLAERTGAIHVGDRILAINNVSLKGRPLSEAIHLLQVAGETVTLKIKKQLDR

[19] = target: DLG5_1, Q8TDM6
Sequence of DLG5_1, Q8TDM6 (Q8TDM6 617-713): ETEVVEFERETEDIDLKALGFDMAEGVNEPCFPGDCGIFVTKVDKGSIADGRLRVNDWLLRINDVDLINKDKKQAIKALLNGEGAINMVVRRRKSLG

[20] = target: IL16_4, Q14005
Sequence of IL16_4, Q14005 (Q14005 1229-1329): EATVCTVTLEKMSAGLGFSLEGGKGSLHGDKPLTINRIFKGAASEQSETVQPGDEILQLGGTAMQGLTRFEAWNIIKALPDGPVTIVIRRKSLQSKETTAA

[21] = target: Inadl_9, Q8NI35
Sequence of Inadl_9, Q8NI35 (Q8NI35 1530-1615): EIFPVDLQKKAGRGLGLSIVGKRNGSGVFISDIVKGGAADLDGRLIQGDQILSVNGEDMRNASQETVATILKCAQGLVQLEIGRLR

[22] = target: T9, TIAM2, Q8IVF5
[23] = target: GRID2IP_2, A4D2P6
Sequence of GRID2IP_2, A4D2P6 (A4D2P6 272-370): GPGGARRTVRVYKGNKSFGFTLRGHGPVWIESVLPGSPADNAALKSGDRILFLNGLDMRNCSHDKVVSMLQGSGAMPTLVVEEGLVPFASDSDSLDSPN

[24] = target: GORASP2, Q9H8Y8
[25] = target: T10, MPP2, Q14168
[26] = target: T11, DFNB31_1, Q9P202

Binder	pKd [1]	pKd [2]	pKd [3]	pKd [4]	pKd [5]	pKd [6]	pKd [7]	pKd [8]	pKd [9]	pKd [10]	pKd [11]	pKd [12]	pKd [13]	pKd [14]	pKd [15]	pKd [16]	pKd [17]	pKd [18]	pKd [19]	pKd [20]	also measured
CNTVTVETVV [MAS1, P04201]	below the threshold	below the threshold	below the threshold	below the threshold	below the threshold	below the threshold	below the threshold	below the threshold	below the threshold	3.63	below the threshold	below the threshold	below the threshold	3.55	below the threshold	below the threshold	4.53	below the threshold	below the threshold	3.6	pKd [21]: below the threshold; pKd [22]: below the threshold; pKd [23]: below the threshold; pKd [24]: below the threshold; pKd [25]: below the threshold; pKd [26]: below the threshold
RRVRKLPSTTL [RPS6KA1, Q15418]	3.52	below the threshold	below the threshold	4.17	below the threshold	below the threshold	below the threshold	3.7	below the threshold	3.54	below the threshold	below the threshold	4.14	below the threshold	4.4	3.75	below the threshold	below the threshold	below the threshold	below the threshold	pKd [21]: below the threshold; pKd [22]: 3.5; pKd [23]: 5.05; pKd [24]: 3.59; pKd [25]: below the threshold; pKd [26]: 3.53
DEDQHTQITKV [PTEN, P60484]	3.77	below the threshold	below the threshold	4.72	below the threshold	3.77	below the threshold	below the threshold	below the threshold	3.91	below the threshold	below the threshold	3.71	below the threshold	below the threshold	4.23	4.04	3.49	below the threshold	3.5	pKd [21]: below the threshold; pKd [22]: below the threshold; pKd [23]: 4.03; pKd [24]: 3.82; pKd [25]: below the threshold; pKd [26]: 3.86
QPGTPTRTAV [MAP2K2, P36507]	3.61	3.5	below the threshold	4.56	below the threshold	below the threshold	below the threshold	3.96	below the threshold	3.54	below the threshold	below the threshold	below the threshold	below the threshold	3.64	below the threshold	3.93	below the threshold	below the threshold	below the threshold	pKd [21]: below the threshold; pKd [22]: below the threshold; pKd [23]: 4.27; pKd [24]: below the threshold; pKd [25]: below the threshold; pKd [26]: below the threshold

Reference: paper PMC9482650, “Quantitative fragmentomics allow affinity mapping of interactomes” (Nature Communications, 2022)
